Laboratory results from PMC9478954, “Density Control over MBD2 Receptor-Coated Surfaces Provides Superselective Binding of Hypermethylated DNA”.

Assays:
[1] = molecular target: T1, His10-MBD2 (UniProt Q9UBB5 151-411); experiment: QCM; 500 nM DNA; threshold MBD2 density ~88 ng/cm2; up to 61% of bound DNA irreversible; BB: 50 mM Tris, 350 mM NaCl, 0.1% Triton X-100 (pH and temperature of BB not stated); 500 nM DNA, 30 min, QCM 5th overtone; His10MBD2 loaded at 1 uM in IB (50 mM Tris pH 7.2, 300 mM NaCl, 0.1% beta-mercaptoethanol); conditions: protein: recombinant; tags: N-terminal His10; blunt
[2] = molecular target: T1, His10-MBD2; experiment: QCM; 500 nM DNA; same trend as Mal5C*pG and Mal3C*pG; plateau between them; BB: 50 mM Tris, 350 mM NaCl, 0.1% Triton X-100 (pH and temperature of BB not stated); 500 nM DNA, 30 min, QCM 5th overtone; His10MBD2 loaded at 1 uM in IB (50 mM Tris pH 7.2, 300 mM NaCl, 0.1% beta-mercaptoethanol); conditions: protein: recombinant; tags: N-terminal His10; blunt

T1 sequence (Q9UBB5 151-411): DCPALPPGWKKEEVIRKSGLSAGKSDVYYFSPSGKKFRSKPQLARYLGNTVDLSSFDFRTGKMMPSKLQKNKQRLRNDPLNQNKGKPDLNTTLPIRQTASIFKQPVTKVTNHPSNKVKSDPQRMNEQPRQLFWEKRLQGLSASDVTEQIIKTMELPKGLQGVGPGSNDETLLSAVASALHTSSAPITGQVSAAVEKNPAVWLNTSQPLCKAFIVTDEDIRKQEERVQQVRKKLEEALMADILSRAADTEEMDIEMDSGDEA

| Binder | binding result [1] | binding result [2] |
| --- | --- | --- |
| Mal5C*pG (dsDNA, 5-methyl-C at all CpGs, both strands (M.SssI); top strand C11, C33, C52, C63, C77) DNA 1: CAGGCAGATGCGCAGCACCAAGCAGAGAGGCCCGGTGCAGGATCCCAGGCCCGAACCAGGCCCGGCTCAGTGGAGCCGGAAGGGGCAGGC DNA 2: GCCTGCCCCTTCCGGCTCCACTGAGCCGGGCCTGGTTCGGGCCTGGGATCCTGCACCGGGCCTCTCTGCTTGGTGCTGCGCATCTGCCTG | binds | – |
| Mal4C*pG (dsDNA, 5-methyl-C at all CpGs, both strands (M.SssI); top strand C11, C32, C53, C74) DNA 1: CAGGCAGATGCGCAGCACCAAGCAGAGAGGCCGGGTGCAGGATCCCAGGCCCCGACCAGGCCAGGCTCAGTGGCGCTGGAAGGGGCAGGC DNA 2: GCCTGCCCCTTCCAGCGCCACTGAGCCTGGCCTGGTCGGGGCCTGGGATCCTGCACCCGGCCTCTCTGCTTGGTGCTGCGCATCTGCCTG | – | binds |
